The sequences below were run on Escherichia coli TOP10 (assay: shrunken log2 fold change of peptide-encoding DNA abundance (4.5 h post-induction vs induction); higher = less antimicrobial activity (less host growth inhibition)). Details: time post-induction: 4.5 h; library: site-saturation at positions 5, 18, 19, 20.
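Note: peptides expressed intracellularly from a pBAD plasmid library in pooled LB shake-flask culture, induced with 0.3% L-arabinose, DNA abundance read by NGS, three biological replicates, DESeq2 with apeglm shrinkage.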

| Sequence | shrunken log2 fold change |
| --- | --- |
| RRIRIRPPRLPRPRPRPANGPRP | 0.0224 |
| RRIRIRPPRLPRPRPRPANWPRP | 0.236 |
| RRIRIRPPRLPRPRPRPANYPRP | -0.33 |
| RRIRIRPPRLPRPRPRPAQPPRP | 0.213 |
| RRIRIRPPRLPRPRPRPASDPRP | -0.077 |
| RRIRIRPPRLPRPRPRPASMPRP | -0.281 |
| RRIRIRPPRLPRPRPRPAVNPRP | 0.131 |
| RRIRIRPPRLPRPRPRPAVPPRP | -0.181 |
| RRIRIRPPRLPRPRPRPAWRPRP | 0.263 |
| RRIRIRPPRLPRPRPRPCAKPRP | 0.0416 |
| RRIRIRPPRLPRPRPRPCAWPRP | -0.0154 |
| RRIRIRPPRLPRPRPRPCEYPRP | -0.115 |
| RRIRIRPPRLPRPRPRPCFCPRP | -0.422 |
| RRIRIRPPRLPRPRPRPCFPPRP | -0.569 |
| RRIRIRPPRLPRPRPRPCFSPRP | -0.198 |
| RRIRIRPPRLPRPRPRPCGRPRP | 0.0552 |
| RRIRIRPPRLPRPRPRPCHQPRP | -0.245 |
| RRIRIRPPRLPRPRPRPCHRPRP | -0.452 |
| RRIRIRPPRLPRPRPRPCITPRP | -0.0326 |
| RRIRIRPPRLPRPRPRPCLHPRP | -0.174 |
| RRIRIRPPRLPRPRPRPCLTPRP | 0.0747 |
| RRIRIRPPRLPRPRPRPCMGPRP | -1.07 |
| RRIRIRPPRLPRPRPRPCMHPRP | -0.171 |
| RRIRIRPPRLPRPRPRPCNGPRP | -0.0882 |
| RRIRIRPPRLPRPRPRPCNVPRP | -0.449 |

| Sequence | shrunken log2 fold change |
| --- | --- |
| RRIRIRPPRLPRPRPRPCPIPRP | 0.128 |
| RRIRIRPPRLPRPRPRPCPLPRP | -0.751 |
| RRIRIRPPRLPRPRPRPCPWPRP | -0.161 |
| RRIRIRPPRLPRPRPRPCQTPRP | -0.02 |
| RRIRIRPPRLPRPRPRPCRWPRP | 0.0527 |
| RRIRIRPPRLPRPRPRPCSEPRP | -0.0312 |
| RRIRIRPPRLPRPRPRPCTDPRP | -0.143 |
| RRIRIRPPRLPRPRPRPCTSPRP | -0.438 |
| RRIRIRPPRLPRPRPRPCTYPRP | -0.0592 |
| RRIRIRPPRLPRPRPRPCVQPRP | 1.47 |
| RRIRIRPPRLPRPRPRPCVSPRP | -0.012 |
| RRIRIRPPRLPRPRPRPCWEPRP | -0.0815 |
| RRIRIRPPRLPRPRPRPCWHPRP | -0.428 |
| RRIRIRPPRLPRPRPRPCWQPRP | -0.211 |
| RRIRIRPPRLPRPRPRPCYKPRP | -0.049 |
| RRIRIRPPRLPRPRPRPCYTPRP | -0.128 |
| RRIRIRPPRLPRPRPRPDAMPRP | -0.112 |
| RRIRIRPPRLPRPRPRPDCHPRP | -0.154 |
| RRIRIRPPRLPRPRPRPDFRPRP | -0.371 |
| RRIRIRPPRLPRPRPRPDHLPRP | -0.846 |
| RRIRIRPPRLPRPRPRPDHQPRP | -0.0128 |
| RRIRIRPPRLPRPRPRPDHSPRP | -0.152 |
| RRIRIRPPRLPRPRPRPDIHPRP | -0.587 |
| RRIRIRPPRLPRPRPRPDINPRP | -0.0484 |
| RRIRIRPPRLPRPRPRPDLGPRP | -0.0274 |

| Sequence | shrunken log2 fold change |
| --- | --- |
| RRIRIRPPRLPRPRPRPDNMPRP | -0.25 |
| RRIRIRPPRLPRPRPRPDPYPRP | -0.555 |
| RRIRIRPPRLPRPRPRPDQQPRP | 0.062 |
| RRIRIRPPRLPRPRPRPDSRPRP | -0.0316 |
| RRIRIRPPRLPRPRPRPDWDPRP | -0.318 |
| RRIRIRPPRLPRPRPRPDYEPRP | -0.0916 |
| RRIRIRPPRLPRPRPRPEAIPRP | -0.0271 |
| RRIRIRPPRLPRPRPRPEASPRP | 0.144 |
| RRIRIRPPRLPRPRPRPEAWPRP | 0.033 |
| RRIRIRPPRLPRPRPRPECRPRP | 0.0513 |
| RRIRIRPPRLPRPRPRPECVPRP | 0.0147 |
| RRIRIRPPRLPRPRPRPEDHPRP | -0.185 |
| RRIRIRPPRLPRPRPRPEDTPRP | 0.0265 |
| RRIRIRPPRLPRPRPRPEDVPRP | -0.0939 |
| RRIRIRPPRLPRPRPRPEESPRP | 0.124 |
| RRIRIRPPRLPRPRPRPEEVPRP | -0.00172 |
| RRIRIRPPRLPRPRPRPEFKPRP | 0.387 |
| RRIRIRPPRLPRPRPRPEHAPRP | 0.00666 |
| RRIRIRPPRLPRPRPRPEHGPRP | -0.0885 |
| RRIRIRPPRLPRPRPRPEHVPRP | -0.0143 |
| RRIRIRPPRLPRPRPRPEIKPRP | -0.14 |
| RRIRIRPPRLPRPRPRPEILPRP | -0.0902 |
| RRIRIRPPRLPRPRPRPEIPPRP | -0.0249 |
| RRIRIRPPRLPRPRPRPELQPRP | -0.0107 |
| RRIRIRPPRLPRPRPRPEMVPRP | -0.14 |

| Sequence | shrunken log2 fold change |
| --- | --- |
| RRIRIRPPRLPRPRPRPEPEPRP | 0.421 |
| RRIRIRPPRLPRPRPRPEPSPRP | 3.27 |
| RRIRIRPPRLPRPRPRPEPWPRP | 0.39 |
| RRIRIRPPRLPRPRPRPEQDPRP | 0.0197 |
| RRIRIRPPRLPRPRPRPERWPRP | 1.8 |
| RRIRIRPPRLPRPRPRPESCPRP | -0.0796 |
| RRIRIRPPRLPRPRPRPESNPRP | 0.0344 |
| RRIRIRPPRLPRPRPRPESPPRP | -0.135 |
| RRIRIRPPRLPRPRPRPESSPRP | -0.0745 |
| RRIRIRPPRLPRPRPRPESTPRP | -0.325 |
| RRIRIRPPRLPRPRPRPETQPRP | 0.0575 |
| RRIRIRPPRLPRPRPRPEVHPRP | -0.102 |
| RRIRIRPPRLPRPRPRPEYCPRP | -0.125 |
| RRIRIRPPRLPRPRPRPEYMPRP | -1.14 |
| RRIRIRPPRLPRPRPRPFALPRP | -0.178 |
| RRIRIRPPRLPRPRPRPFDLPRP | -0.348 |
| RRIRIRPPRLPRPRPRPFDNPRP | -1.1 |
| RRIRIRPPRLPRPRPRPFFWPRP | 0.364 |
| RRIRIRPPRLPRPRPRPFGEPRP | -0.202 |
| RRIRIRPPRLPRPRPRPFGRPRP | -0.0138 |
| RRIRIRPPRLPRPRPRPFHGPRP | -0.146 |
| RRIRIRPPRLPRPRPRPFHLPRP | -0.0356 |
| RRIRIRPPRLPRPRPRPFICPRP | -0.304 |
| RRIRIRPPRLPRPRPRPFIMPRP | -0.187 |
| RRIRIRPPRLPRPRPRPFLAPRP | -0.493 |

| Sequence | shrunken log2 fold change |
| --- | --- |
| RRIRIRPPRLPRPRPRPFLQPRP | -0.248 |
| RRIRIRPPRLPRPRPRPFMRPRP | 0.0516 |
| RRIRIRPPRLPRPRPRPFNRPRP | 0.0284 |
| RRIRIRPPRLPRPRPRPFPDPRP | -0.131 |
| RRIRIRPPRLPRPRPRPFPNPRP | -0.939 |
| RRIRIRPPRLPRPRPRPFQRPRP | -0.0107 |
| RRIRIRPPRLPRPRPRPFRCPRP | -0.192 |
| RRIRIRPPRLPRPRPRPFRLPRP | -0.223 |
| RRIRIRPPRLPRPRPRPFSRPRP | -0.0685 |
| RRIRIRPPRLPRPRPRPFTNPRP | -0.16 |
| RRIRIRPPRLPRPRPRPFTWPRP | -0.924 |
| RRIRIRPPRLPRPRPRPFVQPRP | -0.634 |
| RRIRIRPPRLPRPRPRPGGHPRP | -0.0701 |
| RRIRIRPPRLPRPRPRPGHGPRP | -0.062 |
| RRIRIRPPRLPRPRPRPGHVPRP | -0.0457 |
| RRIRIRPPRLPRPRPRPGIAPRP | -0.184 |
| RRIRIRPPRLPRPRPRPGKGPRP | -0.185 |
| RRIRIRPPRLPRPRPRPGNIPRP | -0.479 |
| RRIRIRPPRLPRPRPRPGPPPRP | 0.221 |
| RRIRIRPPRLPRPRPRPGQIPRP | -0.0559 |
| RRIRIRPPRLPRPRPRPGRLPRP | 0.12 |
| RRIRIRPPRLPRPRPRPGRVPRP | 0.0447 |
| RRIRIRPPRLPRPRPRPGSCPRP | 0.968 |
| RRIRIRPPRLPRPRPRPGSQPRP | -0.0143 |
| RRIRIRPPRLPRPRPRPGTEPRP | -0.0203 |

| Sequence | shrunken log2 fold change |
| --- | --- |
| RRIRIRPPRLPRPRPRPGTPPRP | -0.0727 |
| RRIRIRPPRLPRPRPRPGVDPRP | 0.0326 |
| RRIRIRPPRLPRPRPRPGVSPRP | -0.351 |
| RRIRIRPPRLPRPRPRPGWRPRP | 0.468 |
| RRIRIRPPRLPRPRPRPHAEPRP | -0.217 |
| RRIRIRPPRLPRPRPRPHCFPRP | -0.824 |
| RRIRIRPPRLPRPRPRPHCIPRP | -2.92 |
| RRIRIRPPRLPRPRPRPHCPPRP | -0.102 |
| RRIRIRPPRLPRPRPRPHDEPRP | -0.463 |
| RRIRIRPPRLPRPRPRPHDNPRP | -0.53 |
| RRIRIRPPRLPRPRPRPHDQPRP | -0.573 |
| RRIRIRPPRLPRPRPRPHFCPRP | -0.139 |
| RRIRIRPPRLPRPRPRPHFKPRP | -0.368 |
| RRIRIRPPRLPRPRPRPHGEPRP | -0.178 |
| RRIRIRPPRLPRPRPRPHHKPRP | -1.18 |
| RRIRIRPPRLPRPRPRPHHSPRP | -0.46 |
| RRIRIRPPRLPRPRPRPHICPRP | -0.0273 |
| RRIRIRPPRLPRPRPRPHILPRP | -1 |
| RRIRIRPPRLPRPRPRPHITPRP | -0.66 |
| RRIRIRPPRLPRPRPRPHLCPRP | 0.0475 |
| RRIRIRPPRLPRPRPRPHLKPRP | -0.358 |
| RRIRIRPPRLPRPRPRPHMMPRP | -1.37 |
| RRIRIRPPRLPRPRPRPHMPPRP | -1.11 |
| RRIRIRPPRLPRPRPRPHMSPRP | -0.109 |
| RRIRIRPPRLPRPRPRPHNQPRP | -0.528 |

— the supplement of paper PMC9112550, “Optimization of the antimicrobial peptide Bac7 by deep mutational scanning” (BMC Biology, 2022)
